The text below walks through data of article doi:10.1101/2023.07.03.547386.

A word on the Kd: it is a measure of binding affinity in units of concentration. By stoichiometry N is commonly meant a count of units in the complex or per binding partner.

This experiment deals with ATG8CL (recombinant, purified) (potato). Briefly: ITC. Background: ITC needs no label: the signal is the heat of the interaction.
Chain of ATG8CL (recombinant, purified) (potato) (M1C146 whole entry): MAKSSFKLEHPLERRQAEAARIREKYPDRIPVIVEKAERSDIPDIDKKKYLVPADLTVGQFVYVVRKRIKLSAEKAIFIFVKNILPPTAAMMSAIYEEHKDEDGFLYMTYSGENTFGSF

Rab3GAPL AIM peptide (Rab3GAPL-AIMp): the Kd turned out to be 0.962 µM and the stoichiometry N was 1.03.
